Test results published in patent publication US20230348569A1.

Molecular target: SARS-CoV-2 spike protein variant V376F on VSV pseudoparticles (SARS-CoV-2) (UniProt P0DTC2)
Assay: cell-based or functional assay

For mAb10987 (antibody), the Neutralization IC50 was 0.0178 nM.
